Consider 1 substance from paper PMC6402988.

This assay has as its target ADI-15946 (human). The assay can be described thus: BLI.

For “EBOV GP cleaved (EBOV GPCL) (from UniProt Q05320 33-650) (domain or fragment)”, the Kd was below 1 pM and the off-rate constant (koff) was below 1e-07 s⁻¹.

The Kd is a measure of binding affinity in units of concentration. Low readings indicate higher affinity, high ones lower affinity. Broadly, the koff is the rate constant with which the complex falls apart. Read a low koff as a long-lived complex.
